The conditions of the data set: Bos taurus; pH 7.1; 25 °C; Urea; CD; PIPES 20 mM; reversible: yes; whole UniProt chain shown.

From FireProtDB (doi:10.1111/j.1432-1033.1988.tb14214.x) come the findings set out here.

B1: Protein S100-G wild type, P02633 (protein)
chain: MSAKKSPEELKGIFEKYAAKEGDPNQLSKEELKLLLQTEFPSLLKGPSTLDELFEELDKNGDGEVSFEEFQVLVKKISQ
Take B1: the denaturant m value came out at 0.91 kcal/mol/M, the “denaturant midpoint (higher = more stable)” value was 5.2 M and the unfolding free energy is 20 kJ/mol.
